Like-named read-outs stand apart in the source and are kept apart here.
Legend:
[1] = target: human MSLN (mesothelin) (human) (UniProt Q13421); experiment: cell-based or functional assay
[2] = target: human MSLN (mesothelin) (human) (UniProt Q13421); experiment: cell-based or functional assay; remark: listed apart in the source
human MSLN (human) [3] = target: human MSLN (human) (UniProt Q13421); experiment: cell-based affinity, flow cytometry on target-transfected CHO cells, nonlinear regression (one site - specific binding), mean of three measurements
human MSLN (human) [4] = target: human MSLN (human) (UniProt Q13421); experiment: cell-based or functional assay

B1: CH3 15-E11 CC×I2L×G4×scFc×G4×MS 15-B12 CC×I2L_GQ (SEQ ID NO 251) (bispecific antibody)
chain: QVQLVQSGAEVKKPGASVKVSCKASGYTFTNYWMNWVRQAPGQCLEWMGNIAYGVKGTNYNQKFQGRVTMTVDTSSSTAYMELSRLRSDDTAVYYCATRYFYVMDYWGQGTLVTVSSGGGGQGGGGQGGGGQDIQMTQSPSSLSASVGDRVTITCRASQDISNYLNWYQQKPGKVPKLLIYYTSRLHSGVPSRFSGSGSGTDFTLTISSLQPEDVATYYCVQYAQFPLTFGCGTKVEIKSGGGGQEVQLVESGGGLVQPGGSLKLSCAASGFTFNKYAMNWVRQAPGKGMEWVARIRSKYNNYATYYADAVKDRFTISRDDSKNTLYLQMNNLKTEDTAVYYCVRAGNFGSSYISYFAYWGQGTLVTVSSGGGGQGGGGQGGGGQQTVVTQEPSLTVSPGGTVTITCGSSTGAVTSGNYPNWIQKKPGQAPRGLIGGTKFLAPGTPARFSGSLEGGKAALTLSGVQPEDEAEYYCVLYYSNRWVFGSGTKLTVLGGGGCPPCPAPELLGGPSVFLFPPKPKDTLMISRTPEVTCVVVDVSHEEPEVKFNWYVDGVEVHNAKTKPCEEQYGSTYRCVSVLTVLHQDWLNGKEYKCKVSNKALPAPIEKTISKAKGQPREPQVYTLPPSREEMTKNQVSLTCLVKGFYPSDIAVEWESNGQPENNYKTTPPVLDSDGSFFLYSKLTVDKSRWQQGNVFSCSVMHEALHNHYTQKSLSLSPGKGGGGQGGGGQGGGGQGGGGQGGGGQGGGGQCPPCPAPELLGGPSVFLFPPKPKDTLMISRTPEVTCVVVDVSHEEPEVKFNWYVDGVEVHNAKTKPCEEQYGSTYRCVSVLTVLHQDWLNGKEYKCKVSNKALPAPIEKTISKAKGQPREPQVYTLPPSREEMTKNQVSLTCLVKGFYPSDIAVEWESNGQPENNYKTTPPVLDSDGSFFLYSKLTVDKSRWQQGNVFSCSVMHEALHNHYTQKSLSLSPGKGGGGQVQLQESGPGLVKPSETLSLTCTVSGGSISSSSYFWGWIRQPPGKCLEWIGNIYYSGSSNYNPSLKSRVTISVDTSKNQFSLKLSSVTAADTAVYYCARLPRGDRDAFDIWGQGTMVTVSSGGGGQGGGGQGGGGQDIVMTQSPSSLSASVGDRVTITCRASQGISNYLAWYQQKPGKVPKLLIYAASTLQSGVPSRFSGSGSGTDFTLTISSLQPEDFATYYCQQSYSTPFTFGCGTKVEIKSGGGGQEVQLVESGGGLVQPGGSLKLSCAASGFTFNKYAMNWVRQAPGKGMEWVARIRSKYNNYATYYADAVKDRFTISRDDSKNTLYLQMNNLKTEDTAVYYCVRAGNFGSSYISYFAYWGQGTLVTVSSGGGGQGGGGQGGGGQQTVVTQEPSLTVSPGGTVTITCGSSTGAVTSGNYPNWIQKKPGQAPRGLIGGTKFLAPGTPARFSGSLEGGKAALTLSGVQPEDEAEYYCVLYYSNRWVFGSGTKLTVL
B1 showed a cytotoxicity EC50, GSU KO CDH3 cells [1] of 512 pM, a cytotoxicity EC50, E:T ratio 1:1, GSU KO CDH3 cells [2] of 108 pM and a cytotoxicity EC50, E:T ratio 1:2, GSU KO CDH3 cells [2] of 446 pM. For the same binder, the cytotoxicity EC50, E:T ratio 10:1, GSU KO CDH3 cells [2] was 39.6 pM, the cytotoxicity EC50, GSU KO CDH3 cells [2] was 512 pM and the cytotoxicity EC50, HCT 116 KO CDH3 cells [2] was 51.8 pM.

B2: CH3 15-E11_1_VAG_CC × I2L × G4 × scFc × G4 × MS 15-B12 CC × I2L clipopt_DI (bispecific antibody)
chain: QVQLVQSGAEVKKPGASVKVSCKASGYTFTNYWMNWVRQAPGQCLEWMGNIAYGVAGTNYNQKFQGRVTMTVDTSSSTAYMELSRLRSDDTAVYYCATRYFYVMDYWGQGTLVTVSSGGGGQGGGGQGGGGQDIQMTQSPSSLSASVGDRVTITCRASQDISNYLNWYQQKPGKVPKLLIYYTSRLHSGVPSRFSGSGSGTDFTLTISSLQPEDVATYYCVQYAQFPLTFGCGTKVEIKSGGGGQEVQLVESGGGLVQPGGSLKLSCAASGFTFNKYAMNWVRQAPGKGMEWVARIRSKYNNYATYYADAVKDRFTISRDDSKNTLYLQMNNLKTEDTAVYYCVRAGNFGSSYISYFAYWGQGTLVTVSSGGGGQGGGGQGGGGQQTVVTQEPSLTVSPGGTVTITCGSSTGAVTSGNYPNWIQKKPGQAPRGLIGGTKFLAPGTPARFSGSLEGGKAALTLSGVQPEDEAEYYCVLYYSNRWVFGSGTKLTVLGGGGCPPCPAPELLGGPSVFLFPPKPKDTLMISRTPEVTCVVVDVSHEEPEVKFNWYVDGVEVHNAKTKPCEEQYGSTYRCVSVLTVLHQDWLNGKEYKCKVSNKALPAPIEKTISKAKGQPREPQVYTLPPSREEMTKNQVSLTCLVKGFYPSDIAVEWESNGQPENNYKTTPPVLDSDGSFFLYSKLTVDKSRWQQGNVFSCSVMHEALHNHYTQKSLSLSPGKGGGGQGGGGQGGGGQGGGGQGGGGQGGGGQCPPCPAPELLGGPSVFLFPPKPKDTLMISRTPEVTCVVVDVSHEEPEVKFNWYVDGVEVHNAKTKPCEEQYGSTYRCVSVLTVLHQDWLNGKEYKCKVSNKALPAPIEKTISKAKGQPREPQVYTLPPSREEMTKNQVSLTCLVKGFYPSDIAVEWESNGQPENNYKTTPPVLDSDGSFFLYSKLTVDKSRWQQGNVFSCSVMHEALHNHYTQKSLSLSPGKGGGGQVQLQESGPGLVKPSETLSLTCTVSGGSISSSSYFWGWIRQPPGKCLEWIGNIYYSGSSNYNPSLKSRVTISVDTSKNQFSLKLSSVTAADTAVYYCARLPRGDRDAFDIWGQGTMVTVSSGGGGQGGGGQGGGGQDIVMTQSPSSLSASVGDRVTITCRASQGISNYLAWYQQKPGKVPKLLIYAASTLQSGVPSRFSGSGSGTDFTLTISSLQPEDFATYYCQQSYSTPFTFGCGTKVEIKSGGGGQEVQLVESGGGLVQPGGSLKLSCAASGFTFNKYAMNWVRQAPGKGMEWVARIRSKYNNYATYYADAVKDRFTISRDDSKNTLYLQMNNLKTEDTAVYYCVRAGNFGSSYISYFAYWGQGTLVTVSSGGGGQGGGGQGGGGQQTVVTQEPSLTVSPGGTVTITCGSSTGAVTSGNYPNWIQKKPGQAPRGLIGGTKFLAPGTPARFSGSLEGGKAALTLSGVQPEDEAEYYCVLYYSNRWVFGSGTKLTVL
In the case of B2, the Kd (human MSLN (human) [3]) is reported as 40000 pM.

B3: CH3 15-E11 VAG CC×I2L×G4×scFc×MS 15-B12 CC×I2L clipopt ID (SEQ ID NO 434) (bispecific antibody)
chain: QVQLVQSGAEVKKPGASVKVSCKASGYTFTNYWMNWVRQAPGQCLEWMGNIAYGVAGTNYNQKFQGRVTMTVDTSSSTAYMELSRLRSDDTAVYYCATRYFYVMDYWGQGTLVTVSSGGGGQGGGGQGGGGQDIQMTQSPSSLSASVGDRVTITCRASQDISNYLNWYQQKPGKVPKLLIYYTSRLHSGVPSRFSGSGSGTDFTLTISSLQPEDVATYYCVQYAQFPLTFGCGTKVEIKSGGGGQEVQLVESGGGLVQPGGSLKLSCAASGFTFNKYAMNWVRQAPGKGMEWVARIRSKYNNYATYYADAVKDRFTISRDDSKNTLYLQMNNLKTEDTAVYYCVRAGNFGSSYISYFAYWGQGTLVTVSSGGGGQGGGGQGGGGQQTVVTQEPSLTVSPGGTVTITCGSSTGAVTSGNYPNWIQKKPGQAPRGLIGGTKFLAPGTPARFSGSLEGGKAALTLSGVQPEDEAEYYCVLYYSNRWVFGSGTKLTVLGGGGCPPCPAPELLGGPSVFLFPPKPKDTLMISRTPEVTCVVVDVSHEEPEVKFNWYVDGVEVHNAKTKPCEEQYGSTYRCVSVLTVLHQDWLNGKEYKCKVSNKALPAPIEKTISKAKGQPREPQVYTLPPSREEMTKNQVSLTCLVKGFYPSDIAVEWESNGQPENNYKTTPPVLDSDGSFFLYSKLTVDKSRWQQGNVFSCSVMHEALHNHYTQKSLSLSPGKGGGGQGGGGQGGGGQGGGGQGGGGQGGGGQCPPCPAPELLGGPSVFLFPPKPKDTLMISRTPEVTCVVVDVSHEEPEVKFNWYVDGVEVHNAKTKPCEEQYGSTYRCVSVLTVLHQDWLNGKEYKCKVSNKALPAPIEKTISKAKGQPREPQVYTLPPSREEMTKNQVSLTCLVKGFYPSDIAVEWESNGQPENNYKTTPPVLDSDGSFFLYSKLTVDKSRWQQGNVFSCSVMHEALHNHYTQKSLSLSPGKGGGGQVQLQESGPGLVKPSETLSLTCTVSGGSISSSSYFWGWIRQPPGKCLEWIGNIYYSGSSNYNPSLKSRVTISVDTSKNQFSLKLSSVTAADTAVYYCARLPRGDRDAFDIWGQGTMVTVSSGGGGQGGGGQGGGGQDIVMTQSPSSLSASVGDRVTITCRASQGISNYLAWYQQKPGKVPKLLIYAASTLQSGVPSRFSGSGSGTDFTLTISSLQPEDFATYYCQQSYSTPFTFGCGTKVEIKSGGGGQEVQLVESGGGLVQPGGSLKLSCAASGFTFNKYAMNWVRQAPGKGMEWVARIRSKYNNYATYYADAVKDRFTISRDDSKNTLYLQMNNLKTEDTAVYYCVRAGNFGSSYISYFAYWGQGTLVTVSSGGGGQGGGGQGGGGQQTVVTQEPSLTVSPGGTVTITCGSSTGAVTSGNYPNWIQKKPGQAPRGLIGGTKFLAPGTPARFSGSLEGGKAALTLSGVQPEDEAEYYCVLYYSNRWVFGSGTKLTVL
For B3, the cytotoxicity EC50, GSU KO CDH3 cells [2] was 75.2 pM and the cytotoxicity EC50, HCT 116 KO CDH3 cells [2] was 5.9 pM.

B4: CH3 15-E11 CC × I2L × G4 × scFc × G4 × MS 15-B12 CC × I2L_GQ (bispecific antibody)
chain: QVQLVQSGAEVKKPGASVKVSCKASGYTFTNYWMNWVRQAPGQCLEWMGNIAYGVKGTNYNQKFQGRVTMTVDTSSSTAYMELSRLRSDDTAVYYCATRYFYVMDYWGQGTLVTVSSGGGGQGGGGQGGGGQDIQMTQSPSSLSASVGDRVTITCRASQDISNYLNWYQQKPGKVPKLLIYYTSRLHSGVPSRFSGSGSGTDFTLTISSLQPEDVATYYCVQYAQFPLTFGCGTKVEIKSGGGGQEVQLVESGGGLVQPGGSLKLSCAASGFTFNKYAMNWVRQAPGKGMEWVARIRSKYNNYATYYADAVKDRFTISRDDSKNTLYLQMNNLKTEDTAVYYCVRAGNFGSSYISYFAYWGQGTLVTVSSGGGGQGGGGQGGGGQQTVVTQEPSLTVSPGGTVTITCGSSTGAVTSGNYPNWIQKKPGQAPRGLIGGTKFLAPGTPARFSGSLEGGKAALTLSGVQPEDEAEYYCVLYYSNRWVFGSGTKLTVLGGGGCPPCPAPELLGGPSVFLFPPKPKDTLMISRTPEVTCVVVDVSHEEPEVKFNWYVDGVEVHNAKTKPCEEQYGSTYRCVSVLTVLHQDWLNGKEYKCKVSNKALPAPIEKTISKAKGQPREPQVYTLPPSREEMTKNQVSLTCLVKGFYPSDIAVEWESNGQPENNYKTTPPVLDSDGSFFLYSKLTVDKSRWQQGNVFSCSVMHEALHNHYTQKSLSLSPGKGGGGQGGGGQGGGGQGGGGQGGGGQGGGGQCPPCPAPELLGGPSVFLFPPKPKDTLMISRTPEVTCVVVDVSHEEPEVKFNWYVDGVEVHNAKTKPCEEQYGSTYRCVSVLTVLHQDWLNGKEYKCKVSNKALPAPIEKTISKAKGQPREPQVYTLPPSREEMTKNQVSLTCLVKGFYPSDIAVEWESNGQPENNYKTTPPVLDSDGSFFLYSKLTVDKSRWQQGNVFSCSVMHEALHNHYTQKSLSLSPGKGGGGQVQLQESGPGLVKPSETLSLTCTVSGGSISSSSYFWGWIRQPPGKCLEWIGNIYYSGSSNYNPSLKSRVTISVDTSKNQFSLKLSSVTAADTAVYYCARLPRGDRDAFDIWGQGTMVTVSSGGGGQGGGGQGGGGQDIVMTQSPSSLSASVGDRVTITCRASQGISNYLAWYQQKPGKVPKLLIYAASTLQSGVPSRFSGSGSGTDFTLTISSLQPEDFATYYCQQSYSTPFTFGCGTKVEIKSGGGGQEVQLVESGGGLVQPGGSLKLSCAASGFTFNKYAMNWVRQAPGKGMEWVARIRSKYNNYATYYADAVKDRFTISRDDSKNTLYLQMNNLKTEDTAVYYCVRAGNFGSSYISYFAYWGQGTLVTVSSGGGGQGGGGQGGGGQQTVVTQEPSLTVSPGGTVTITCGSSTGAVTSGNYPNWIQKKPGQAPRGLIGGTKFLAPGTPARFSGSLEGGKAALTLSGVQPEDEAEYYCVLYYSNRWVFGSGTKLTVL
For B4, the EC50 (cytotoxicity) on double positive cells; column head printed 'EC50 CHO hu CDH3 (+) & MSLN (+)'; value is that of HCT 116 wt in Table 46 (human MSLN (human) [4]) was 0.071 pM, the EC50 (cytotoxicity); column head printed 'EC50 CHO hu CDH3 (+)', table title HCT 116; value is that of HCT 116 KO CDH3 in Table 46 (human MSLN (human) [4]) was 51.8 pM and the EC50 on HCT 116 KO CDH3 (cytotoxicity; cells CDH3-, MSLN+) (human MSLN (human) [4]) was 51.8 pM. For the same binder, the EC50 on HCT 116 wt (cytotoxicity; cells CDH3+, MSLN+) (human MSLN (human) [4]) was 0.07 pM, the fold gap of column 6 (HCT 116 KO CDH3 by Table 46) against double positive cells (human MSLN (human) [4]) was 727 fold and the Kd (human MSLN (human) [3]) was 33800 pM.

From patent US20240209078A1
